Positions count from the first letter of the chain named. Names and notes keep the numbering of the source. Values joined by “and” are separate entries in the source; they are usually repeats but may differ in a detail not shown here. Equal values may be shown once.
Assays:
[1] = molecular target: T1, Fu-bc subunit protein (Dengue virus (DENV-2-like E domain II), …); assay: SPR
T1 chain: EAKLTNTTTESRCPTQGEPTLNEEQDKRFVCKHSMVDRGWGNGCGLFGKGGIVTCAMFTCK

[2] = molecular target: T2, Fu-bc fused to the GAL4 activation domain (pGADT7) (Dengue virus (DENV-2-like E domain II), …); assay: two-hybrid
T2 chain: T1 chain

[3] = molecular target: T1, Fu-bc subunit protein; assay: BLI

B1: scFv-Mutant9 (S227W) (scFv, V domains shown)
VH: EVKLVESGGGLVLPGGSLRLSCATSGFTFTDYYMTWVRQPPGKALEWLGFIGNKANDYTTEYSASVKGRFTISRDDSQSILYLQMSTLRAEDRATYYCATVYGNYPYFDVWGAGTTVAVSS
VL: QIVLTQSPAIMSASPGEKVTMTCSASSSVSYMHWYQQKSGTSPKIWIYESSKLASGVPVRFSGSGSGTSYSLTISSMEAEDVATYYCQQWSWHPHPLTFGAGTKLELK
[1]
  binding result: binds

B2: scFv-mutant18 fused to the GAL4 DNA-binding domain (pGBKT7) (scFv, V domains shown)
VH: B1 VH with Y33Q, Y105W
VL: B1 VL with W92S, H95W
[2]
  binding result: binds

B3: scFv-Mutant1 (T30W) (scFv, V domains shown)
VH: B1 VH with T30W
VL: B1 VL with W92S
[1]
  binding result: binds

B4: scFv-mutant15 fused to the GAL4 DNA-binding domain (pGBKT7) (scFv, V domains shown)
VH: B1 VH with D31L, Y105W
VL: B1 VL
[2]
  binding result: binds

B5: scFv single mutant D31L (scFv, V domains shown)
VH: B1 VH with D31L
VL: B1 VL with W92S
[1]
  binding result: binds

B6: scFv-Mutant8 (S227L) (scFv, V domains shown)
VH: B1 VH
VL: B1 VL with W92L
[1]
  binding result: binds

B7: scFv-mutant17 (Y33Q, G103T, S227L) (scFv, V domains shown)
VH: B1 VH with Y33Q, G103T
VL: B1 VL with W92L
[3]
  Kd: 31 ± 14 nM
[1]
  Kd: 27 ± 11 nM

B8: scFv double mutant T30W, S227L (scFv, V domains shown)
VH: B1 VH with T30W
VL: B1 VL with W92L
[1]
  binding result: binds

B9: scFv-mutant18 (Y33Q, Y105W, H230W) (scFv, V domains shown)
VH: B1 VH with Y33Q, Y105W
VL: B1 VL with W92S, H95W
[3]
  Kd: 310 ± 35 nM
[1]
  fold change in affinity against the WT: ~7 fold

B10: scFv-mutant16 fused to the GAL4 DNA-binding domain (pGBKT7) (scFv, V domains shown)
VH: B1 VH with T30W, Y33Q
VL: B1 VL
[2]
  binding result: binds

B11: scFv-mutant15 (D31L, Y105W, S227W) (scFv, V domains shown)
VH: B1 VH with D31L, Y105W
VL: B1 VL
[3]
  Kd: 21 ± 11 nM
[1]
  Kd: 24 nM and 20 to 52 nM

B12: scFv-Mutant7 (Y105W) (scFv, V domains shown)
VH: B1 VH with Y105W
VL: B1 VL with W92S
[1]
  binding result: binds

B13: scFv-mutant16 (T30W, Y33Q, S227W) (scFv, V domains shown)
VH: B1 VH with T30W, Y33Q
VL: B1 VL
[3]
  Kd: 47 ± 19 nM
[1]
  Kd: 52 ± 17 nM

B14: scFv single mutant D31F (scFv, V domains shown)
VH: B1 VH with D31F
VL: B1 VL with W92S
[1]
  binding result: binds

B15: scFv-Mutant5 (Y33Q) (scFv, V domains shown)
VH: B1 VH with Y33Q
VL: B1 VL with W92S
[1]
  Kd: 302 ± 15 nM

B16: scFv double mutant12 (T30W, S227W) (scFv, V domains shown)
VH: B1 VH with T30W
VL: B1 VL
[1]
  binding result: binds

B17: scFv-Mutant6 (G103T) (scFv, V domains shown)
VH: B1 VH with G103T
VL: B1 VL with W92S
[1]
  binding result: binds

B18: scFv-mutant17 fused to the GAL4 DNA-binding domain (pGBKT7) (scFv, V domains shown)
VH: B1 VH with Y33Q, G103T
VL: B1 VL with W92L
[2]
  binding result: binds

B19: scFv double mutant13 (Y33Q, G103T) (scFv, V domains shown)
VH: B1 VH with Y33Q, G103T
VL: B1 VL with W92S
[1]
  fold change in affinity against the WT: 45 fold
